The target in assay [1] is T1, GST-HP1γ (human, UniProt Q13185 1-183).
T1 construct: HP1γ
The assay can be described thus: pull-down; GST fusion proteins bound to agarose beads incubated with purified histones, recombinant B10-tagged H3 constructs or purified Brg1-flag; ELB buffer (50mM HEPES pH 7, 250mM NaCl, 1mM EDTA, 0.1% NP40); elution with 20mM glutathione; western blot (anti-H3, anti-B10 or anti-Brg1). Particulars: both partners purified.

Assay [2] addresses T2, GST-HP1α (human, UniProt P45973 1-191).
T2 construct: HP1α, human; also called HP1α-derived GST-fusion protein
Described as above. Particulars: both partners purified.

T1 sequence (Q13185 whole entry): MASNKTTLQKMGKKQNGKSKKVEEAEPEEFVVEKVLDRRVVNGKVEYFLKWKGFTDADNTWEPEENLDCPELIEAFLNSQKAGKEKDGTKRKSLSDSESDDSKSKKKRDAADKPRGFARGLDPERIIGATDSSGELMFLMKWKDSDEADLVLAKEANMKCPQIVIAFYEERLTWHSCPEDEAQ
T2 sequence (P45973 whole entry, the tested form may be a part): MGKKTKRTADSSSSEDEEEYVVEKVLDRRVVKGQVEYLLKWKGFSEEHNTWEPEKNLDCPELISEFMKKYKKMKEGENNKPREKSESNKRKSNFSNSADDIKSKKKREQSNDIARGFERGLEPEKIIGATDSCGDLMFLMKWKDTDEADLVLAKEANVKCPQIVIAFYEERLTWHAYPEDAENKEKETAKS

B1: rH3(44–66), B10/6xHIS-tagged (domain or fragment, UniProt P68431 45-67, looked up)
chain: GTVALREIRRYQKSTELLIRKLP
notes: histone H3 aa 44-66, recombinant; also called histone H3 aa 44 to 66
With B1, the binding result in assay [1] is reported as “binds”.

B2: rH3(35–66), B10/6xHIS-tagged (domain or fragment)
chain: not shown
notes: histone H3 aa 35-66 (V35 to P66), recombinant; also called Shadock; histone H3 aa 35 to 66
As for B2, in assay [1], the binding result is reported as “binds”. The “fold excess of HP1α over Brg1 needed for similar binding” value in assay [2] is ~50 fold.

B3: rH3(35–66)V46A, B10/6xHIS-tagged (domain or fragment)
chain: not shown
notes: histone H3 aa 35-66 with the valine of the PXXVXL motif mutated; also called mutant B10-tagged fragment of histone H3 (aa 35 to 66)
In the case of B3, the binding result in assay [1] is listed as “binds”.

(Values after paper PMC2782133, “Interaction of HP1 and Brg1/Brm with the Globular Domain of Histone H3 Is Required for HP1-Mediated Repression” (PLoS Genetics, 2009).)
